Source: patent publication US20140056907A1 (Regeneron, published 2014)

T1: human ASIC1 (human, UniProt P78348 1-528)
T1 sequence: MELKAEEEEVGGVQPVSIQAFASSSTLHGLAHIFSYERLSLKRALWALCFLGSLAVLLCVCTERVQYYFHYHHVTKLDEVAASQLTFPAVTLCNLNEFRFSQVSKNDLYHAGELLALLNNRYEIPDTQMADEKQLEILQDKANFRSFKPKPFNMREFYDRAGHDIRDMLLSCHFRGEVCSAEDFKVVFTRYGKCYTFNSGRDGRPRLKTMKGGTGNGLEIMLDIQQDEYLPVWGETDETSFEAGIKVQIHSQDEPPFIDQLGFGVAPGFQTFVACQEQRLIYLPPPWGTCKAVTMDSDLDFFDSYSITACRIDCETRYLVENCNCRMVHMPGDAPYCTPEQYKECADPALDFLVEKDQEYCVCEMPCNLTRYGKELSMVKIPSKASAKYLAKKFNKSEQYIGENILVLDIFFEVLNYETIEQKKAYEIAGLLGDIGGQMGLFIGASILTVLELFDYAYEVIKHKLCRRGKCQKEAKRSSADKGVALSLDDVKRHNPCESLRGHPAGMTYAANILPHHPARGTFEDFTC

T2: human ASIC3 (human, UniProt Q9UHC3 1-531)
T2 construct: whole, on cells; Expressed on 3T3 cells (3T3/hASIC3) or HEK293 cells (HEK/hASIC3-QCells); also called hASIC3
T2 sequence (looked up): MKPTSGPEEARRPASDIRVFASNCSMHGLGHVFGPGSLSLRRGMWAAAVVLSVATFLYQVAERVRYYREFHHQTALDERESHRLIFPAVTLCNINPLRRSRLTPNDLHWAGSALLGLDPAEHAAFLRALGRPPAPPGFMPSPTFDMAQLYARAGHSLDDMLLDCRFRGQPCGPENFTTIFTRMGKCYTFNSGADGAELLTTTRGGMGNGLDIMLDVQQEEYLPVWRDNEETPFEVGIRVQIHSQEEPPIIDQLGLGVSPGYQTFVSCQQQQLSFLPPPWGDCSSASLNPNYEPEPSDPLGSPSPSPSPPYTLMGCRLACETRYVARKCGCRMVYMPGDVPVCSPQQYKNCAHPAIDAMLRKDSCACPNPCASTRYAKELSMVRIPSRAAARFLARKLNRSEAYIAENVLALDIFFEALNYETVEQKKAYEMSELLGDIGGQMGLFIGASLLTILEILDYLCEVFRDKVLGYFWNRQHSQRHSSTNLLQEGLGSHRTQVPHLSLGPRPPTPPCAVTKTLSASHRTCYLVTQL

T3: human ASIC1/ASIC3 channels (co-expressed human ASIC1a and human ASIC3) (human, UniProt Q9UHC3 1-531)
T3 construct: whole, on cells; 3T3 cells co-expressing both subunits; also called 3T3/hASIC1/3; 3T3-hASIC1/ASIC3
T3 sequence 1: T1 sequence
T3 sequence 2: T2 sequence (looked up)

B1: H3M6726N (antibody, V domains shown)
VH: EVQLLESGGVLVQPGGSLRLSCAASGFNFNNYDMSWVRQAPGKGLEWVSVISASGRNTYYADSVKGRFTISRDNSKISLYLQMNSLRPEDTAVYYCAKDHLVHYYYGMDVWGQGTTVTVSS
VL: DIMMTQSPLSLSVTPGEPASISCRSSQSLLHSNGYNYLDWYLQKSGQSPHLLIYLGSNRASGVPDRFSGSGSGTDFTLKISRVEAEDGGVYYCMQALQTPRTFGQGTKVEIK
notes: Chimeric: human variable, mouse constant domains; H3M prefix marks the Fc, isotype not spelled out
B2: H3M7102N (antibody, V domains shown)
VH: EVQLLASGGGLVQPGGSLRLSCAASGFTFSSFAMSWVRQAPGKGLEWVSGISGSGGSTYYADSVKGRFTISRDNSKNTLYLQMNSLRAEDTAAYYCAKEAYKWQPWGQGIRVTVSS
VL: DIQMTQSPSTLSASVGDRVSITCRASQSISSWLAWYQQKPGKAPKLLIYKASNLDSGVPSRFSGSGSGTDFTLTISSLQPDDFATYYCQQYNSYSYTFGQGTKLEIK
notes: as for B1

What was measured:
human ASIC1 [1] = target: T1, human ASIC1; test: cell-based or functional assay
human ASIC1 [2] = target: T1, human ASIC1; test: cell-based or functional assay; remark: listed apart in the source
human ASIC1 [3] = target: T1, human ASIC1; test: FACS titration, 3T3/hASIC1 cells
human ASIC3 = target: T2, human ASIC3; test: FACS, 3T3/hASIC3 cells, 10 nM antibody
Source text: (§1) For these experiments, four cell lines were constructed: (a) a mouse fibroblast 3T3 cell line stably transfected to overexpress full length human ASIC3 (3T3/hASIC3; amino acids 1-531 of NCBI accession number NP_{—}004760.1), (b) a 3T3 cell line stably transfected to co-express full length human ASIC1a and human ASIC3 (3T3/hASIC1/3; amino acids 1-528 of NCBI accession number NP_{—}001086.2 and amino acids 1-531 of NCBI accession number NP_{—}004760.1), (c) […] a stably transfected 3T3 cell line expressing the full-length mouse ASIC3 channel (3T3/mASIC3; amino acids 1-530 of NCBI accession number NP_{—}892045.2), and (d) a 3T3 cell line stably transfected to co-express full length mouse ASIC1a and mouse ASIC3 (3T3/mASIC1/3; amino acids 1-526 of NCBI accession number NP_{—}033727 and amino acids 1-530 of NCBI accession number NP_{—}892045.2). Antibody binding was determined using flow cytometry (FACS).
(§2) To perform the FACS binding experiments, adherent cells were collected with cold Millipore Accutase 3-5 minutes, spun and resuspended in ice-cold FACS buffer (PBS, 2% HI-FBS and 0.09% Na-azide). Anti-ASIC1 antibody at final concentrations of 10 nM was added for 20-30 minutes on ice. Cells were washed with 900 μL ice-cold FACS buffer, spun, and resuspended in 100 μL ice-cold FACS buffer. A secondary antibody which recognizes human Fc (Jackson Immuno Research, #109-136-098) and is conjugated to allophycocyanin, was then added to the cell mixture at a final concentration of 2.5 ug/mL. After incubating for 20 minutes on ice, the cells were washed and resuspended in FACS buffer, then sorted and analyzed on a flow cytometer (FACSCanto II, BD Biosciences, San Jose, Calif.) to determine relative binding by the candidate antibodies to the tested cell lines. Histograms of cells stained with anti-ASIC1 antibodies were compared with those of cells stained with secondary antibody alone. Percentage of ASIC1 signal over secondary antibody alone was calculated using FlowJo software (Tree Star, Ashland, Oreg.).

[4] = target: T3, human ASIC1/ASIC3 channels …; test: FACS, 3T3/hASIC1/3 cells, 10 nM antibody
Source text: as §1, §2

Row | Binder | apparent IC50, human ASIC1 current, Q-Patch (human ASIC1 [1]) | Current inhibition (%) at 100 nM antibody, Q-Patch, pH 6.0 (human ASIC1 [2]) | EC50 (human ASIC1 [3]) | binding result (human ASIC3) | binding result [4]
1 | B1 | > 10 nM | 85% | 2.6 nM | binds | binds
2 | B2 | ≤ 10 nM | 100% | 5.4 nM | binds | binds
